Results taken from PMC9108610 (2022).

Target: T1, CSC (Vps26/Vps29-GFP/Vps35) (Saccharomyces cerevisiae, UniProt P40335)
T1 chain 1: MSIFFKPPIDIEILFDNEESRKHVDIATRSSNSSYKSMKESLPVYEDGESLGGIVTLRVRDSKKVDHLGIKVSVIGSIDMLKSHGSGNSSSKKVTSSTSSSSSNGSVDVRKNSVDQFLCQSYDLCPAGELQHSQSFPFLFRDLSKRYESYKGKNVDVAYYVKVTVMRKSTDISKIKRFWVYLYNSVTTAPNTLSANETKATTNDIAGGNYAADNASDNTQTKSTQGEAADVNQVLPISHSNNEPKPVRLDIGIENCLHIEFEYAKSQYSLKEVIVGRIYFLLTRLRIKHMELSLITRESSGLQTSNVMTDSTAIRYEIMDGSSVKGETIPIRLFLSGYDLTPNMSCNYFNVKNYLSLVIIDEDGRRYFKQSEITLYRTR
T1 chain 2: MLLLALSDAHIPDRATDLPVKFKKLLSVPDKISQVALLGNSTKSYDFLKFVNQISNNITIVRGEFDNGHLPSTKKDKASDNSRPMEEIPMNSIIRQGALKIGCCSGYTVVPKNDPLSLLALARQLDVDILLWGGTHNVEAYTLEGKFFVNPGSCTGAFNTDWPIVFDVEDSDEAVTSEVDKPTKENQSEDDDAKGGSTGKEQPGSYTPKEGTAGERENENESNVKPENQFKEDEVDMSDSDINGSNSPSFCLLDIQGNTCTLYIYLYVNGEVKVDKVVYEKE
T1 chain 3: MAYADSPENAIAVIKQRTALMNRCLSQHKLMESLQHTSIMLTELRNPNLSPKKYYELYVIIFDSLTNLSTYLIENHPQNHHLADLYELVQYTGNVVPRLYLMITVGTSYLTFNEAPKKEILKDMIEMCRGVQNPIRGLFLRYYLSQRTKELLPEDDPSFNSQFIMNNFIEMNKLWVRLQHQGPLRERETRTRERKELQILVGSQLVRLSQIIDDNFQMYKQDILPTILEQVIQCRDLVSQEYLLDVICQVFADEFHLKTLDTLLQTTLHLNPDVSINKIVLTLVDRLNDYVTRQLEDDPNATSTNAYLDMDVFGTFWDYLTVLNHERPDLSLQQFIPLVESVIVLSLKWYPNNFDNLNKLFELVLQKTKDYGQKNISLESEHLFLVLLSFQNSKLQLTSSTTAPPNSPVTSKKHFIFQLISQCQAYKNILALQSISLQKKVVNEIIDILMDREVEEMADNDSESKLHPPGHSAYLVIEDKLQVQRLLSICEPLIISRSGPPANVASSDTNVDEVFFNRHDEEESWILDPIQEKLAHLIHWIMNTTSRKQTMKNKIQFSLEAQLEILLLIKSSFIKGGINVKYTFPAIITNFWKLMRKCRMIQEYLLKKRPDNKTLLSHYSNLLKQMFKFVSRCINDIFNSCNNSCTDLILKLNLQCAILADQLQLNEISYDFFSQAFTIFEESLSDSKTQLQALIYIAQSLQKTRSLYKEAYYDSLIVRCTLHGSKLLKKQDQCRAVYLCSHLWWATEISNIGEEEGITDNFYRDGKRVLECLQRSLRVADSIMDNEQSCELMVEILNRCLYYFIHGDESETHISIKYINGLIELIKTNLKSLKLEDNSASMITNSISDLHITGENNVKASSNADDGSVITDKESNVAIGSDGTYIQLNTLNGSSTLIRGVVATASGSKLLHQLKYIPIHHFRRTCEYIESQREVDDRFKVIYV
Test: fluorescence titration (Vps29-GFP emission increase)

- Kd: ~50 nM
B1: Atg18 (protein)
chain: MSDSSPTINFINFNQTGTCISLGTSKGFKIFNCEPFGKFYSEDSGGYAIVEMLFSTSLLALVGIGDQPALSPRRLRIINTKKHSIICEVTFPTSILSVKMNKSRLVVLLQEQIYIYDINTMRLLHTIETNPNPRGLMAMSPSVANSYLVYPSPPKVINSEIKAHATTNNITLSVGGNTETSFKRDQQDAGHSDISDLDQYSSFTKRDDADPTSSNGGNSSIIKNGDVIVFNLETLQPTMVIEAHKGEIAAMAISFDGTLMATASDKGTIIRVFDIETGDKIYQFRRGTYATRIYSISFSEDSQYLAVTGSSKTVHIFKLGHSMSNNKLDSDDSNMEEAAADDSSLDTTSIDALSDEENPTRLAREPYVDASRKTMGRMIRYSSQKLSRRAARTLGQIFPIKVTSLLESSRHFASLKLPVETNSHVMTISSIGSPIDIDTSEYPELFETGNSASTESYHEPVMKMVPIRVVSSDGYLYNFVMDPERGGDCLILSQYSILMD
